According to publication PMC9482650, “Quantitative fragmentomics allow affinity mapping of interactomes” (Nature Communications, 2022):
Numbering of substitutions follows the chain as printed.

T1: PDZD2_2, O15018
T1 sequence (O15018 329-429, limits assumed, looked up): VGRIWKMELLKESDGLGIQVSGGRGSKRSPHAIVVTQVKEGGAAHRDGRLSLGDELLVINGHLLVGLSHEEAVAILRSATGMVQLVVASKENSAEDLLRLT

T2: PDZRN3_1, Q9UPQ7
T2 sequence (Q9UPQ7 244-349, limits assumed, looked up): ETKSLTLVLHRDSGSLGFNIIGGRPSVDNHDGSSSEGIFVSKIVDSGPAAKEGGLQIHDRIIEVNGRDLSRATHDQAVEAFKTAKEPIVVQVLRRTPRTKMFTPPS

T3: ARHGAP21, Q5T5U3
T3 sequence (Q5T5U3 45-169, limits assumed, looked up): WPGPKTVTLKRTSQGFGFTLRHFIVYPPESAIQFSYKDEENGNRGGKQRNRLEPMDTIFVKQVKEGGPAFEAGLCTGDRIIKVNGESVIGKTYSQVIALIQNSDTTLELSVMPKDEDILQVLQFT

T4: APBA2_2, Q99767
T4 sequence (Q99767 654-744, limits assumed, looked up): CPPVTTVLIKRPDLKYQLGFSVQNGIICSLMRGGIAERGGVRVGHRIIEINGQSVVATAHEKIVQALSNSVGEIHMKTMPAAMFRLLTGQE

T5: GRIP1_4, Q9Y3R0
T5 sequence (Q9Y3R0 467-571, limits assumed, looked up): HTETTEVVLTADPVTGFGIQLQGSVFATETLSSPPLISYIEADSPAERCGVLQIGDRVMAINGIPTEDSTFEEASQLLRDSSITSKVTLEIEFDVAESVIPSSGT

T6: HTRA4, P83105
T6 sequence (P83105 378-476, limits assumed, looked up): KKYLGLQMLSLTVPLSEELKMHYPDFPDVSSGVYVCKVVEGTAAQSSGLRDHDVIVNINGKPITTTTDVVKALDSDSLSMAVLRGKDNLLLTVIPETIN

T7: NHERF3_4, Q5T2W1
T7 sequence (Q5T2W1 373-468, limits assumed, looked up): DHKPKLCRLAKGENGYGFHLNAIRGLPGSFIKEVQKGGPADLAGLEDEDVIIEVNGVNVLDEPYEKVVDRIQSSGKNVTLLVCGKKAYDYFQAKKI

T8: SNTG2, Q9NY99
T8 sequence (Q9NY99 68-166, limits assumed, looked up): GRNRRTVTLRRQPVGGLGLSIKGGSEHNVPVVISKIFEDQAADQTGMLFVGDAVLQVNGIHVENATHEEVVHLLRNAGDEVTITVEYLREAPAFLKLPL

T9: LIN7B, Q9HAP6
T9 sequence (Q9HAP6 88-185, limits assumed, looked up): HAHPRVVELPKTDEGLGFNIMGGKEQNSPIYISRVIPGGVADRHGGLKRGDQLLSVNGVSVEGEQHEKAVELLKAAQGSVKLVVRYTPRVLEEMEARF

T10: SNTB1, Q13884
T10 sequence (Q13884 107-205, limits assumed, looked up): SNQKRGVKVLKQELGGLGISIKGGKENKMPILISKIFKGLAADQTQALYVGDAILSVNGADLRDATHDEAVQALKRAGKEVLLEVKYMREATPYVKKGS

T11: LIN7C, Q9NUP9
T11 sequence (Q9NUP9 88-185, limits assumed, looked up): T9 sequence (Q9HAP6 88-185, limits assumed, looked up) with A2S, D13E, V35I, V40I, Q65H, S79K, R89K, A96S

T12: LNX2_3, Q8N448
T12 sequence (Q8N448 463-564, limits assumed, looked up): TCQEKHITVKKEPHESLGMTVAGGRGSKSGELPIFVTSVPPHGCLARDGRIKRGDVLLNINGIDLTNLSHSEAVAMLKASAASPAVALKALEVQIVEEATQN

B1: SLC22A12, Q96S37 (peptide)
chain: GNSVLKSTQF
B2: NLGN4X, Q8N0W4 (peptide)
chain: LPHGHSTTRV

What follows are binders tested against T1, PDZD2_2, O15018 (assay: holdup assay). Details: plain residues with an end cap or a label only (N-terminal biotin on a linker: ado-ado).
Parameters: key: below the threshold = too weak to quantify, mostly under pKd 3.1 to 4

Row | pKd | Binder
1 | below the threshold | B1
2 | 3.53 | B2

What follows are binders tested against DLG1_3, Q12959 (assay: holdup assay). Details: plain residues with an end cap or a label only (N-terminal biotin on a linker: ado-ado).
Sequence of DLG1_3, Q12959 (Q12959 457-571): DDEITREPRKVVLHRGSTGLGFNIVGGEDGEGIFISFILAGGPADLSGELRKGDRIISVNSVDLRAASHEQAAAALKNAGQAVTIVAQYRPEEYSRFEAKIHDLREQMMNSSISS
Parameters: key: below the threshold = too weak to quantify, mostly under pKd 3.1 to 4

Row | pKd | Binder
3 | below the threshold | B1
4 | 4.24 | B2

These binders were tested against TJP1_3, Q07157 (assay: holdup assay). Details: plain residues with an end cap or a label only (N-terminal biotin on a linker: ado-ado).
Sequence of TJP1_3, Q07157 (Q07157 416-512): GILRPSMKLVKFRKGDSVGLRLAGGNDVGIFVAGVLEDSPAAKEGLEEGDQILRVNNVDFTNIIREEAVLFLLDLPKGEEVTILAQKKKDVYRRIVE
Parameters: key: below the threshold = too weak to quantify, mostly under pKd 3.1 to 4

Row | pKd | Binder
5 | below the threshold | B1
6 | below the threshold | B2

Each binder was assayed against T2, PDZRN3_1, Q9UPQ7 (assay: holdup assay). Details: plain residues with an end cap or a label only (N-terminal biotin on a linker: ado-ado).
Parameters: key: below the threshold = too weak to quantify, mostly under pKd 3.1 to 4

Row | pKd | Binder
7 | below the threshold | B1
8 | 3.78 | B2

The binders below were run against Inadl_6, Q8NI35 (assay: holdup assay). Details: plain residues with an end cap or a label only (N-terminal biotin on a linker: ado-ado).
Sequence of Inadl_6, Q8NI35 (Q8NI35 1058-1167): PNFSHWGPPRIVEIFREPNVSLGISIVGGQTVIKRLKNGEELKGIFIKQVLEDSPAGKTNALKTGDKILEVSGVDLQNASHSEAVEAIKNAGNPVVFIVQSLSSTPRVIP
Parameters: key: below the threshold = too weak to quantify, mostly under pKd 3.1 to 4

Row | pKd | Binder
9 | below the threshold | B1
10 | below the threshold | B2

These binders were tested against T3, ARHGAP21, Q5T5U3 (assay: holdup assay). Details: plain residues with an end cap or a label only (N-terminal biotin on a linker: ado-ado).
Parameters: key: below the threshold = too weak to quantify, mostly under pKd 3.1 to 4

Row | pKd | Binder
11 | below the threshold | B1
12 | 3.73 | B2

Each binder was assayed against FRMPD2_1, Q68DX3 (assay: holdup assay). Details: plain residues with an end cap or a label only (N-terminal biotin on a linker: ado-ado).
Sequence of FRMPD2_1, Q68DX3 (Q68DX3 770-861): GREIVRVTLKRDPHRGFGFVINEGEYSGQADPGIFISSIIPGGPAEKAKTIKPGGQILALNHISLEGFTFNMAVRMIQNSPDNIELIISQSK
Parameters: key: below the threshold = too weak to quantify, mostly under pKd 3.1 to 4

Row | pKd | Binder
13 | below the threshold | B1
14 | below the threshold | B2

Each binder was assayed against T4, APBA2_2, Q99767 (assay: holdup assay). Details: plain residues with an end cap or a label only (N-terminal biotin on a linker: ado-ado).
Parameters: key: below the threshold = too weak to quantify, mostly under pKd 3.1 to 4

Row | pKd | Binder
15 | below the threshold | B1
16 | below the threshold | B2

The binders below were run against T5, GRIP1_4, Q9Y3R0 (assay: holdup assay). Details: plain residues with an end cap or a label only (N-terminal biotin on a linker: ado-ado).
Parameters: key: below the threshold = too weak to quantify, mostly under pKd 3.1 to 4

Row | pKd | Binder
17 | below the threshold | B1
18 | below the threshold | B2

What follows are binders tested against T6, HTRA4, P83105 (assay: holdup assay). Details: plain residues with an end cap or a label only (N-terminal biotin on a linker: ado-ado).
Parameters: key: below the threshold = too weak to quantify, mostly under pKd 3.1 to 4

Row | pKd | Binder
19 | below the threshold | B1
20 | 4.04 | B2

The binders below were run against DLG4_3, P78352 (assay: holdup assay). Details: plain residues with an end cap or a label only (N-terminal biotin on a linker: ado-ado).
Sequence of DLG4_3, P78352 (P78352 306-403): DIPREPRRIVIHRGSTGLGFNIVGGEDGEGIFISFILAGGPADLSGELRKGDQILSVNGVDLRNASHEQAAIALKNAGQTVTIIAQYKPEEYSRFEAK
Parameters: key: below the threshold = too weak to quantify, mostly under pKd 3.1 to 4

Row | pKd | Binder
21 | below the threshold | B1
22 | 4.04 | B2

These binders were tested against DLG1_2, Q12959 (assay: holdup assay). Details: plain residues with an end cap or a label only (N-terminal biotin on a linker: ado-ado).
Sequence of DLG1_2, Q12959 (Q12959 314-412): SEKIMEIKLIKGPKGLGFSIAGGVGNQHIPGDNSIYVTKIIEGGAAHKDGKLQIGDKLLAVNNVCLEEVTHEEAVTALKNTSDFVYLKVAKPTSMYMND
Parameters: key: below the threshold = too weak to quantify, mostly under pKd 3.1 to 4

Row | pKd | Binder
23 | below the threshold | B1
24 | 4.04 | B2

What follows are binders tested against T7, NHERF3_4, Q5T2W1 (assay: holdup assay). Details: plain residues with an end cap or a label only (N-terminal biotin on a linker: ado-ado).
Parameters: key: below the threshold = too weak to quantify, mostly under pKd 3.1 to 4

Row | pKd | Binder
25 | 5.45 | B1
26 | 3.85 | B2

Each binder was assayed against MAGI2_4, Q86UL8 (assay: holdup assay). Details: plain residues with an end cap or a label only (N-terminal biotin on a linker: ado-ado).
Sequence of MAGI2_4, Q86UL8 (Q86UL8 772-865): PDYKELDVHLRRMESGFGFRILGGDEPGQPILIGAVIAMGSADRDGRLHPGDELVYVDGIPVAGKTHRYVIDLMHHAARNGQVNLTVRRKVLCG
Parameters: key: below the threshold = too weak to quantify, mostly under pKd 3.1 to 4

Row | pKd | Binder
27 | 3.79 | B1
28 | 3.91 | B2

These binders were tested against LAP2, Q96RT1 (assay: holdup assay). Details: plain residues with an end cap or a label only (N-terminal biotin on a linker: ado-ado).
Sequence of LAP2, Q96RT1 (Q96RT1 other isoform, or with tags, fused parts or gaps): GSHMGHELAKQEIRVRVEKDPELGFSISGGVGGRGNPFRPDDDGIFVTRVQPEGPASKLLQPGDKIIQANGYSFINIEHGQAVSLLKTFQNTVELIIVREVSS
Parameters: key: below the threshold = too weak to quantify, mostly under pKd 3.1 to 4

Row | pKd | Binder
29 | below the threshold | B1
30 | 3.67 | B2

What follows are binders tested against T8, SNTG2, Q9NY99 (assay: holdup assay). Details: plain residues with an end cap or a label only (N-terminal biotin on a linker: ado-ado).
Parameters: key: below the threshold = too weak to quantify, mostly under pKd 3.1 to 4

Row | pKd | Binder
31 | below the threshold | B1
32 | 4 | B2

What follows are binders tested against Inadl_3, Q8NI35 (assay: holdup assay). Details: plain residues with an end cap or a label only (N-terminal biotin on a linker: ado-ado).
Sequence of Inadl_3, Q8NI35 (Q8NI35 359-469): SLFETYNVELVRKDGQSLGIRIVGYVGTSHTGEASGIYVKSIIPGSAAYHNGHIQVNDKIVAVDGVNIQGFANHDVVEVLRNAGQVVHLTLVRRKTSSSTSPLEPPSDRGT
Parameters: key: below the threshold = too weak to quantify, mostly under pKd 3.1 to 4

Row | pKd | Binder
33 | below the threshold | B1
34 | below the threshold | B2

These binders were tested against SCRIB_2, Q14160 (assay: holdup assay). Details: plain residues with an end cap or a label only (N-terminal biotin on a linker: ado-ado).
Sequence of SCRIB_2, Q14160 (Q14160 857-960): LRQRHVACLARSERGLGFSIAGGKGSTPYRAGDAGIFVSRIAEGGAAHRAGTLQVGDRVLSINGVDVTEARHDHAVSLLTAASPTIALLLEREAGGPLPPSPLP
Parameters: key: below the threshold = too weak to quantify, mostly under pKd 3.1 to 4

Row | pKd | Binder
35 | below the threshold | B1
36 | below the threshold | B2

These binders were tested against T9, LIN7B, Q9HAP6 (assay: holdup assay). Details: plain residues with an end cap or a label only (N-terminal biotin on a linker: ado-ado).
Parameters: key: below the threshold = too weak to quantify, mostly under pKd 3.1 to 4

Row | pKd | Binder
37 | 3.71 | B1
38 | 3.66 | B2

What follows are binders tested against LNX1_2, Q8TBB1 (assay: holdup assay). Details: plain residues with an end cap or a label only (N-terminal biotin on a linker: ado-ado).
Sequence of LNX1_2, Q8TBB1 (Q8TBB1 371-470): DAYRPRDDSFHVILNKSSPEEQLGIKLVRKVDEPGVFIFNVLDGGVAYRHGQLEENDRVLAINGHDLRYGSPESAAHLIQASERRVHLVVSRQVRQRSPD
Parameters: key: below the threshold = too weak to quantify, mostly under pKd 3.1 to 4

Row | pKd | Binder
39 | below the threshold | B1
40 | 3.54 | B2

These binders were tested against T10, SNTB1, Q13884 (assay: holdup assay). Details: plain residues with an end cap or a label only (N-terminal biotin on a linker: ado-ado).
Parameters: key: below the threshold = too weak to quantify, mostly under pKd 3.1 to 4

Row | pKd | Binder
41 | below the threshold | B1
42 | 4.27 | B2

Each binder was assayed against T11, LIN7C, Q9NUP9 (assay: holdup assay). Details: plain residues with an end cap or a label only (N-terminal biotin on a linker: ado-ado).
Parameters: key: below the threshold = too weak to quantify, mostly under pKd 3.1 to 4

Row | pKd | Binder
43 | 4.12 | B1
44 | below the threshold | B2

These binders were tested against T12, LNX2_3, Q8N448 (assay: holdup assay). Details: plain residues with an end cap or a label only (N-terminal biotin on a linker: ado-ado).
Parameters: key: below the threshold = too weak to quantify, mostly under pKd 3.1 to 4

Row | pKd | Binder
45 | below the threshold | B1
46 | below the threshold | B2

What follows are binders tested against IL16_4, Q14005 (assay: holdup assay). Details: plain residues with an end cap or a label only (N-terminal biotin on a linker: ado-ado).
Sequence of IL16_4, Q14005 (Q14005 1229-1329): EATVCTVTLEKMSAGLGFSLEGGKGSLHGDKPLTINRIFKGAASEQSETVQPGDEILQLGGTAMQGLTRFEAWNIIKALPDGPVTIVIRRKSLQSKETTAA
Parameters: key: below the threshold = too weak to quantify, mostly under pKd 3.1 to 4

Row | pKd | Binder
47 | 3.58 | B1
48 | 3.74 | B2

The binders below were run against LNX1_3, Q8TBB1 (assay: holdup assay). Details: plain residues with an end cap or a label only (N-terminal biotin on a linker: ado-ado).
Sequence of LNX1_3, Q8TBB1 (Q8TBB1 500-596): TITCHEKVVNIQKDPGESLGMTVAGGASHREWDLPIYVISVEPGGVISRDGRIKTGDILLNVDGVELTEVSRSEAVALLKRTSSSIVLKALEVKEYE
Parameters: key: below the threshold = too weak to quantify, mostly under pKd 3.1 to 4

Row | pKd | Binder
49 | below the threshold | B1
50 | below the threshold | B2
